Test results from patent US20220041738A1 (SAITAMA MEDICAL UNIVERSITY, published 2022).

What was measured:
Experiment in all cases: immunofluorescence (legend of FIG. 4)
[1] = target: T1, wild-type human ALK2 on cells (cDNA in pcDEF3) (human, UniProt Q04771 21-509)
T1 construct: also called wild-type ALK2; ALK2 (WT)
T1 sequence: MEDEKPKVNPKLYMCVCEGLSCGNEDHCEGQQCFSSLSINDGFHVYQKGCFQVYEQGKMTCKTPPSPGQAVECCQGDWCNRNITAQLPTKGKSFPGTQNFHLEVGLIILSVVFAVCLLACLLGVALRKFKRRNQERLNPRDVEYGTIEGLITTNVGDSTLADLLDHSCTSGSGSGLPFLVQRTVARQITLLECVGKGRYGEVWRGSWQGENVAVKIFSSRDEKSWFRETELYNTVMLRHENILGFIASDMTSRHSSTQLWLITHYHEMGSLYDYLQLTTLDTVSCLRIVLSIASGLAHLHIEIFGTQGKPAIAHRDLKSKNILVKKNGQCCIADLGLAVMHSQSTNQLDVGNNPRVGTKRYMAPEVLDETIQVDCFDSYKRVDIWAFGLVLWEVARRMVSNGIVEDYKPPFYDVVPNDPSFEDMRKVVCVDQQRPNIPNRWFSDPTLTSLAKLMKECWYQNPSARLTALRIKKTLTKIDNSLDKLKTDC
Method in brief: (§1)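 C2C12 mouse myoblasts transfected overnight with human ALK2 cDNA (wild-type or FOP variants incl. G325A, pcDEF3 vector). Cells formalin-fixed, goat-serum blocked, stained 1 h RT with purified IgG at 10 µg/mL, then Alexa 594 anti-rat IgG 1 h; DAPI nuclei, fluorescence microscopy read-out.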

[2] = target: T2, human ALK2-P197_F198delinsL on cells (human, UniProt Q04771 21-509)
T2 construct: also called delP197_F198insL
T2 sequence: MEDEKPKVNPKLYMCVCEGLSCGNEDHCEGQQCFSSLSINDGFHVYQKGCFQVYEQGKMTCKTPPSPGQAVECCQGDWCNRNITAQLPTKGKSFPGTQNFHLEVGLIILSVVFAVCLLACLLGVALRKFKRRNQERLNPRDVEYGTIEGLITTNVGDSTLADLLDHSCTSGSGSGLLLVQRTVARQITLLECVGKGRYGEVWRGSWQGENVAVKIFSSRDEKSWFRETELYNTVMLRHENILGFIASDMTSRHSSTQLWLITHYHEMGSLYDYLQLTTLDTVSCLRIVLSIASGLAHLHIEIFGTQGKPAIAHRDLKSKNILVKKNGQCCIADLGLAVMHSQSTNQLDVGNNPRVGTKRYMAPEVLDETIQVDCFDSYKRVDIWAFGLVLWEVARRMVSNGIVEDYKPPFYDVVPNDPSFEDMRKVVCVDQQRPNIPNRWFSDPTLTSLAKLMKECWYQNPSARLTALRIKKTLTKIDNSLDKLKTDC
Method in brief: as §1

[3] = target: T3, human ALK2-R206H on cells (human, UniProt Q04771 21-509)
T3 sequence: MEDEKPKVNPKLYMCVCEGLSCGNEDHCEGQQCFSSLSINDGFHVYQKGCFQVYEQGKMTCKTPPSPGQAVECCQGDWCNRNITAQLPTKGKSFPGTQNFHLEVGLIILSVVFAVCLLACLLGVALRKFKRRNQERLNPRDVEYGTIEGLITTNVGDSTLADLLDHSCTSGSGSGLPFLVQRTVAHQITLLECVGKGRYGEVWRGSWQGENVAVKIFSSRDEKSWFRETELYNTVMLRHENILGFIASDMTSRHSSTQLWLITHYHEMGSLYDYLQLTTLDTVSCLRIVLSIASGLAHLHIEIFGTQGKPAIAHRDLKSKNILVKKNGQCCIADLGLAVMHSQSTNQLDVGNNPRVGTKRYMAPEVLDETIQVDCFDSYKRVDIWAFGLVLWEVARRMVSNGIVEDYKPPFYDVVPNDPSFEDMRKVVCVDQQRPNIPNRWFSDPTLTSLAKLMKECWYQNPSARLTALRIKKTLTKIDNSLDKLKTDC
Method in brief: as §1

[4] = target: T4, human ALK2-Q207E on cells (human, UniProt Q04771 21-509)
T4 sequence: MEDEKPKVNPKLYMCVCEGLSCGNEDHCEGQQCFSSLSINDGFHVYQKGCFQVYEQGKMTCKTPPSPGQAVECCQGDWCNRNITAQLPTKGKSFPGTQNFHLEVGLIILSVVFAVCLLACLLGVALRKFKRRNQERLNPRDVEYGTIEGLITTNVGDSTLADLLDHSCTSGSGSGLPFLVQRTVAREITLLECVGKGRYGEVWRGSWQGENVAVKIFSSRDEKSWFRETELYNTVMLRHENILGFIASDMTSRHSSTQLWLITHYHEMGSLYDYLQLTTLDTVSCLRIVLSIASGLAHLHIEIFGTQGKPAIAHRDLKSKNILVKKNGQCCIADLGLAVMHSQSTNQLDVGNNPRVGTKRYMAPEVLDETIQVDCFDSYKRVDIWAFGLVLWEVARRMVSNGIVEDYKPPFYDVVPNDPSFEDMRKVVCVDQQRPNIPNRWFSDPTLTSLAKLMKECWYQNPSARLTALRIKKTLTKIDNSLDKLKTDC
Method in brief: as §1

Measured: binding result

B1: rat anti-ALK2 monoclonal antibody A2-11E (antibody, V domains shown)
VH: EVQLVETGGGLVQPGRSLKLSCVASGFTFSNYYMYWIRQAPGKGLEWISSINTDGGSTYYPDSVKGRFAISRDNAENTVYLQMNSLRSEDTATYYCAKSTPNIPLAYWGQGTLVTVSS
VL: DIQMTQSPSLLSASVGDRVTLSCKASQNIYKYLNWFQQKLGEAPKLLIYYSNSLQTGIPSRFSGSGSGTDFTLTISSLQPEDVAIYFCFQYSSGPTFGPGTKLELKR
notes: Rat monoclonal IgG from a hybridoma; also called 11E2
binds: [1] | [2] | [3] | [4]

B2: rat anti-ALK2 monoclonal antibody A2-15A (antibody, V domains shown)
VH: EVQLVESGGGLVQPGRSLKLSCAASGFTFSHYYMAWVRQAPTKGLEWVASITNSGGSINYRDSVKGRFTISRDNAKSTLYLQMDSLRSEDTATYYCTREGGENYGGYPPFAYWGQGTLVTVSS
VL: DIVLTQSPALAVSLGQRATISCRANQGVSLSRYNLMHWYQQKPGQKPKLLIYRSSNLASGIPARFSGSGSGTDFTLTINPVQADDIATYYCQQSRESPFTFGAGTKLELKR
notes: Rat monoclonal IgG from a hybridoma; also called 15A6
binds: [1] | [2] | [3] | [4]
